The text below walks through data of patent US20230183347A1.

The target in the test is human PD-1 (hPD-1) expressed on T cells (DO11.10 T cell hybridomas, DO11.10 mouse CD4+ T cells, activated human CD4+ T cells) (human) (UniProt Q15116). Description: cell-based or functional assay.
Chain of UniProt Q15116 (Q15116 25-288 limits assumed): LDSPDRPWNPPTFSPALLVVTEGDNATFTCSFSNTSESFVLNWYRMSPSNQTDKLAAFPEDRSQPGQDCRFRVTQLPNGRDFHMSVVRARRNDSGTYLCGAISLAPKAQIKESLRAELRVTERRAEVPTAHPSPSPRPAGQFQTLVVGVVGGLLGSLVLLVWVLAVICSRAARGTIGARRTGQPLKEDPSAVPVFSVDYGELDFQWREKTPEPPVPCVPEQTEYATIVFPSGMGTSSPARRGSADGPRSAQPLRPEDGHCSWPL

For the substance “anti-human PD-1 antibody (clone: J116, Invitrogen)”, the IC50 of inhibitory activity on IL-2 production is 1 µg/mL.
